Assay [1] deals with GLA cross-linked soluble BG505 SOSIP trimer (GLA-SOSIP trimer) (HIV-1 BG505). Kind of assay: ELISA; capture ELISA: plates coated with 4 ug/mL mAb 2G12, SOSIP or GLA-SOSIP trimer (0.2 ug/mL) captured, titration series of biotinylated mAbs or ligand; binding index = AUC on GLA-SOSIP trimer / AUC on SOSIP trimer. (In general: An ELISA detects its analyte on a solid surface through an enzyme-linked reagent.)

Assay [2] has the same target. The assay is described as follows: SPR; ProteOn XPR36, GLC chip with human antibody capture kit; 2G12 captured, then about 600 RU of trimer; dilution series of Fab passed over for 180 s, 600 s buffer; HBS-EP+ pH 7.4 with 1 mg/mL BSA; binding index = signal ratio GLA-SOSIP trimer / SOSIP trimer. On the technique in general: In SPR one partner is held on a chip, and binding of the other changes the refractive index at the surface.

In assay [1], PGT145 (mAb) (antibody) registered a fold loss of binding against SOSIP trimer (ELISA binding index) of 3.3 fold. PGT145 Fab: the fold loss of binding against SOSIP trimer (SPR binding index) in assay [2] worked out at 5.3 fold.

Source of the values: PMC5944921.
